From the domain aggregation screens of Martell et al. (2025)

Test: soluble fraction after stress (log2 fold change); higher = more stays soluble; pooled small domains, quantitative proteomics
Conditions: stress: pH 4
How it was run: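 With high-throughput quantitative proteomics, pooled custom libraries of small protein domains were measured after pH 4 stress. Each domain's soluble amount after the stress gives a fold change taken as aggregation propensity. Higher log2 values mean more of the domain stayed soluble.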

Row | Sequence | soluble fraction (log2)
1 | HMPGVLEVDTGGVAAVAYVDGVEVGRVPGELQIAAGTKTLMLKADRYLDYVQSLEIDGLGKRQLLVATLQS | -0.831
2 | HMYPTPAAANRHFLDKWGHQEAYLGKVLNSRSRASEILNGKRPLSLSDLRTLRDNLGIPVDLLL | -0.421
3 | HMGRQVTVPNVTGMLVEEARAAISEAELWVDSPRAVQGEVTRQEPARGERLSPGQEVRIYTES | -0.568
4 | HMDDPISSMVNRIRLAFGLSVTDLAAVLGVERPTIYSWLKDGSTPAPARLTRVRQVLSLADTW | ≥ 0.43
5 | HMQGVNLTETEKNFIAQVLSPLLKQGQSLYQIRTNHPEIKLSVKTLYTYIESGIFKESGINNFSLRRQ | -0.319
6 | HMIHANGLTDRQEMILEFIRSYISENNYPPSVREIGKGVGLASSASVHNNMKKLASLGFLNWDTD | -0.194
7 | HMSSTSTMTVAEATIGRKVKHDKFGEGTIITVADVNGDKKLTIAFNQQGVKMLMLSMAKLEL | -1.05
8 | HMKQENRLKILRKEKGLTQTKLANEIGVSKRTIIAWENDERQIKPDKAQQLADYFGVKEGYLLGYTNN | -0.0458
9 | HMSKHAIQNELEKIEGIGKQTADSLLKEFKSVKKLRTLPLSEIEKVIGKSKATIVFEALHKDK | 0.0949
10 | HMINIGANIRAIRKQKNIKQVDLVRLLQLEGVEITRETLVKIESGVQHIKASQLRGIRDALGTTYDELL | -0.863
11 | HMFDDEELDTFAGRQSDSYDQQEVEQFSDVLHTMRQDEVQAWWRSLTLRGISLPDELKDEVIML | -1.6
12 | HMGEIVVPDLIGKSLTEATRILSDSTLTVGKVNYQISSTLLPNTVLDQYPAPGNKLNSGNTVDLFITKE | -0.0586
13 | HMAIGDYYINASALNVRSGEGTNYRIIGALPQGQKVQVISENSGWSKINYNGQTGYIGTRYLSKTPV | 0.22
14 | HMKDTNENLMKMLALLIHAAKIDENYSDEEKELIVNFAEMSSKENLNREQILSIIKSAEEYE | -0.673
15 | HMSRIDRKGLTSQIVNHLSKNPGKNFTLKQFFRNLKLNTHPLKMLAVDVLNKLLDTNFITRNEDGEFFLKA | -0.123
16 | HMLSSREEKILNYLNEHQIITRKKAQELLETSQSTAGRVLKIMVDNGLIVQYGGSRSIWYELIK | -0.269

Row | Sequence | soluble fraction (log2)
17 | HMSVTIDAGGKVYLQESEIADDQLVPRLVAISNNGYDKPIYLRADKTVGYGRVAEVMSLLNAAGFTKLVLV | -0.244
18 | HMNPGHAERGKEIVEVFLRNNGELSMREIAEKSNITITQARRRVNKLLDQGIVEATAPVQSRNRKYRIK | 0.0708
19 | HMQPETIEDATNLYLEAARATLQLIEQNNVIARDVKRLLEHLDNDMARIETLLAEMLSRRDHWLRHIH | 0.185
20 | HMSEIVEEQNTKLKQAVSKLSKRQQEVLYLKFEEGLDYEQISKIMDLKYQSVRNLVSTAIIKIKEH | 0.0707
21 | HMFSLDMDRLVRPGFMASGNVTFSDGVTGKWALDQMGRLALETAQKGYQPSPADVQAFQRELQQQLQRQG | -0.178
22 | HMRERLPFGFAQSKKVVLLSTESDTPKVLSVNWPSLDLYAELKRVIGRAFLLEIVSEEEFQAQVSDAYQRD | -1.48
23 | HMNPMLEPAGEIRLSDGVLLRWQSERLPGDDTVRGPGSLYELGLYRVKVRVSAPQQGVRESSVELAGWRQV | -0.212
24 | HMTNVLSEQESKLLERMNKAGLNAEITVKKAAQILNLSESAARNVLNRLVGKGYLTVDTSRLPFLFQR | 0.122
25 | HMSKNIRQQFLDVLPKTFDRNQYLETAKKLSINAKTAEGYIKKFVEANLLDHPKHNHYINLKKVEEVETK | -0.0789
26 | HMNNWYESSIKSLVEEYFREHGFSVVFDSSEFWDVFIEKYHKQIPSSQIALFDQVAAEARSYAFNKK | -0.545
27 | HMLVDWNYLEGKRGVTTTPLTPSGKARFGDDVVNVLSDGVLVSTGTPVRVLQVLGNRVLVEPLDG | 0.0163
28 | HMNDELMEQIDEWHKAEKHQEIIDALEQIPEAERDFETTGFLARAYNNIEEYAKAADLLESVRE | -1.51
29 | HMAEKRTAIITTARADIRQKPEATAPLAFEAVKDVVLELTDKPADGWVRVKHRDGSTGYIRINQI | -0.132
30 | HMSKEIQNILASLPSVDVLLKQIDPIYPHGKAKEATQQVVARLRESVVDGTRKTVIDQKEVIAMIHKQLEE | -0.149
31 | HMKEGGGYGQLRLKEAAIQHAFDLQNALQFIAERGYQAHENTTLKEAANALNLKPIELLELLKSSQ | -0.574
